Experimental data reported in the DeepSol protein solubility set.

Assay: soluble on expression in E. coli; label from the status in PepcDB or PDB records

Sequence	soluble on expression in E. coli
MTEYLSVSALTKYIKYKFDQDPHLQSVLIKGELSNFKKHSSGHLYFNVKDKESVISAMMFKGNASKLGFEPKEGDEVLIEARVSVYERRGNYQIYVNKMQLDGIGNLYQKLELLKKKLKKEGYFNQSNKKLIPKYPKKIAVLTASTGAAIRDIHSTINNRYPLVEQIQISTLVQGTQARQDIIEKIQYADSLDVDTIIVGRGGGSIEDLWNFNEEDVVKTIFNCQTPIISAVGHETDFTLSDFVADVRAATPTQAAVIATPDQYELLQQIKQYEYTLSRYIKQYIEHQKKQLNHISSYYKFKQPSLLYDQQIQKRDELERQLNHLLNTKVEKSKHHLKLLQQSFNFKNLNQQITQEKQSIYQLHSRLSKIMSNNITNLKTVLKNKLESLNNLSPTNTMLRGYAIVNKDNEVVTSTHKLNENDQISLTMKDGSVDATVKKVRCNDE	not soluble
MTFYYQRLAQQIAHKIYQQQLLPQQKLSSLRDFATQHQVSISTAKSCYEWLEAQGLIYVKPKSGYFVKPKSNVSRLPVSPEFESMPRQVSNLMLQNQIQEASIQNHLIPFGAIQLSPELVPIDGLRRSIQRALKYCKPEDFLYCEKQGHLRLRQALSEHWREDGIYVAPNDIFITNGCMPALSLLIQQLSREGDSILIPTPTFNGQLQLLAGLNRHIIEIPADHTGIDLLRLEQAMQMHQPKLCLLTANYQNPLGYCLADEDKQKIAQLAARYQCIILEDDIYAECSHHGQRPRPIKYWDEAGYVIWVSSVSKSLSSAYRVGWFCIGSQLEPMRPRFLSHNMTVNTPLQLALADFIFSRGYRRHLNQLHPRLMQQVEAYRDVILNAFAPLTIGLSQPQGGYALWLELPDNINSVTLYEVAQQQGISIVPGTVFGEDQRYGHFIRLSVGHALQNEHHAAIIFLADWVKQHC	not soluble
MTGKLPKACVIGAGCSGFTTIKRLKDYGIPYDCFEMSDEVGGNWYYKNPNGLSACYESLHIDTSKWRLAFEDFPVPKDWPDFPHHAQLFQYFKDYVDHFGLRPTITFNTKVESAKRTADGLWAVTLSGGETQFYDVLFVCNGHHWDPRVPEYPGEFDGPAFHAHAYCDPFDPVDMRGKNVVVVGMGNSAMDIASELSQRPIAKNLWVSARRGVWVFPKYLNGKPADKTALPAWMPRKLGVALSRSVLKKTIGRMEDYGLPKPDHEPLEAHPSVSGEFLTRAGCGDIKFKPAIKALEGKRVRFTDDSVEDVDAIVFATGYKISFPFFDDPALLPDADHRLPLFKRMMKPEVPNLFYMGLAQPLPTLVNFAEQQAKLAAAYLAGQYALPPPAEMARITAKDEHRHTGHFYDSARHTIQVDFNVYCADLKKEIAKGEARARNAGGKLPVAARAEGQALAAELEHHHHHH	soluble
MTIAQQERPVAASPYRFEAEMTSGLERVAAHHHDLTLTSVFQPIFSLSHMRAVGYEALLRAHDALDRPVSPLDVFGEAARHGEAAQVDRLAQALHLENFARFGAEREWLFLNVHPGVLTDPFQAAALFANLKRLEIPPRRIVLEVLEQRADDIERLADAVREFREQGFLIALDDFGAGHSNIERIWQLNPDIVKLDRIMLSHAQHRAGLTAILHGLVTLLHEAGKLVLIEGIETEHEAQIALACDADFVQGHFFGRP	not soluble
MTIDTELTNGSSESVPFVFIGGGNMAAAIIKGCQNKGFTPKSNIVIGVQTEKSAEKWRQLGYKNVFTNTLEMLERYSTAIYVICVKPQVFEEVVSSWPVNSRPEFIISVMAGVPLKVLNAKLPFVSGNTTIVRLMPNVASSIGAGASTMCYEKNEKIMNQDSHIELAREFAECVGTVELIPERCFNPAMAIGGSSPAWTFMYIESLADGAVAQGLGRAEAKRLAAQAVLGAAQMVLNSNSGFDIETQHFGSLKDMVCSPGGTTIEGVRALEKNGFRYAVMEAVVAASTKADEMAKSLAK	soluble
MTIENDYAKLKELMEFPAKMTFKVAGINREGLAQDLIQVVQKYIKGDYIPKEKRSSKGTYNSVSIDIIAENFDQVETLYKELAKVEGVKMVI	not soluble
MTIFNKIDYNYYKLINYPIMMVHDEWLGDLTGVNQVSFRRLRETSSTRNQLNKILRQEIHDKISGVELSDINKEGFLYQSIGKIRLLALSSALFDIQCPDYIFSRLYRETLIREIGYQNVKQLSFYWQGGQCKPEYGEERFCAELIKYGAGNLEWLFADNPLWTIVKYLLPKSGEIKPTHINDLFLNRLNKILLPYETL	not soluble
MTIHHHGSAERKSIDDYSDIPRGEACKQLVEQLNRNLYSLNSNMQTTFKQMVHVETRIGHEISLLSSCLQENMSKCTMPYAPHEEQLVQLDSAKRNLKQLTRLLDARQIFDAEDSQSEKLKDRAIDDSLLPTLVAIGDNLKIIKELGAKPKFDAETYHKTKDRYLAWKGTEFAVKFDTPGGLDDIFDAFTTLNSVNDFYRLYQHHFDQSLNNLNKNSGIEDEKSLKEMGTVFVTKAAEHFRTHIGSLCKYCDENEAFTRLLDAWKNYIKNGTLEKLFEQSMENYNNYDLLSDLKSVVTKAYEEFETNTAGGPEDDEESIENIERIIVDGLMESAKKPLSEKLRSMVEPPPLNFRSVAEVMSSLENFAYLLREISHQLLEIYLEDEGREFMISILKPIFTDYTMRLCRMEDNSTPKVKLEEYLERIALAGQLSTIVEEYKDQTEIKNGLELKNAKKWMNERVKDAIRASHRFVTDKMPNHGSETYKESADMAKSALPTPQDFVVTATQNLLHLLRFWEEALANENTKVALIAHVMDINKESLETPDDDAIFAAILDRIASHVVKKLLQSINDVWLTDGKTATLSKGLVKEFLCDAEYLRDALVDLRAGTHDNLDSTINKLREQLKTMS	not soluble
MTIHLSSLGQVYLVCGKTDMRQGIDSLAYLVKTHFELDPFSGQVFLFCGGRKDRFKALYWDGQGFWLLYKRFENGKLTWPSTEKDVKALTPEQVDWLMKGFSITPKINLSESRDFY	not soluble
MTILAIDTSNYTLGIALLREDTVIAEYITYLKKNHSVRAMPAVHSLLNDCDMAPQDLSKIVVAKGPGSYTGVRIGVTLAKTLAWSLDIPISAVSSLETLAANGRHFDGLISPIFDARRGQVYTGLYQYKNGLLEQVVPDQNVMLADWLEMLKEKDRPVLFLGHDTSLHKQMIEDVLGTKGFIGTAAQHNPRPSELAFLGKEKEAADVHGLVPDYLRLAEAEAKWIESQKLEHHHHHH	not soluble
MTINASNSATKKDKPAKYTMIKQYICEHIESGEWPQNAKVPSENELTQQFDVSRMTARRALQELTEQGILVRSQGAGTFVATFKSQSSLLEIRNISDEISDRGHQHKAKQLLLNSTAVTDEIAILLNLKNNEDVFYSEILHYENDDAIQLEQRFVNVSLVPDYLLQNFTQITPHEYLSSVAPLTEATHEIEAILASDEICQQLDIQSTTPCLQVKRRTWSKQGVVSVAILTSPGDKYRLGSHLKF	not soluble
MTINMALHYPNYFAALVPQATAYSYYQYERNNDGTYKMIEDKNSISGKSSIRTNKIWFDSQKVKTLKNIPIWFIHSAADKVVNPKTYSLPIYKSLLDSGAKNKWFSYYDNVQGKDLKDTTYNGHWSWVYFFNNQVSSVQDVKTIKKSSKLSGFKPSNKSKGGAATAKEGKKSYNNVFDWLNDQKK	not soluble
MTIQHQFAENLSRLKKEHGLKNHQIAELLNVQTRTVAYYMSGETKPDIEKLIRLATYFHLSIDELVGYVQEDKVWNDLSLKQWLLSLNLRSEEEIAKIKILVDTVETLYPN	not soluble
MTIVAENLTKHLSNLSKRGPHRVLVGDLDYVGLPGKIYTPAEGNGLPAVVFAHDWMQDISRYHATLRHLASWGIVVAAPNTEKGISPNHRGFAADIETSLQVLTGVKLGAGNISVAPGRLGIVGHGMGAGAAVLAAADRPQIAAVAAIYPSQVSPSADVAARNVEAAGLVLGTEENAMFDFGNAAKLALEWKGPVAYREIDRASHQTLTENTLFKRVTGLGGTNTAARERIRGVVTGFLLHQLADQKKYSGFSEADATGKKVHSYWGEELQERASLTGDSKLTLFKS	not soluble
MTIYFKNGFYDDTLGGIPEGAVAVRAEEYAALLAGQAQGGQIAADSDGRPVLTPPRPSDYHEWDGKKWKISKAAAAARFAKQKTALAFRLAEKADELKNSLLAGYPQVEIDSFYRQEKEALARQADNNAPTPMLAQIAAARGVELDVLIEKVIEKSARLAVAAGAIIGKRQQLEDKLNTIETAPGLDALEKEIEEWTLNIG	not soluble
MTKIAFTGGGTVGHVSVNLSLIPTALSQGYEALYIGSKNGIEREMIESQLPEIKYYPISSGKLRRYISLENAKDVFKVLKGILDARKVLKKEKPDLLFSKGGFVSVPVVIAAKSLNIPTIIHESDLTPGLANKIALKFAKKIYTTFEETLNYLPKEKADFIGATIREDLKNGNAHNGYQLTGFNENKKVLLVMGGSLGSKKLNSIIRENLDALLQQYQVIHLTGKGLKDAQVKKSGYIQYEFVKEDLTDLLAITDTVISRAGSNAIYEFLTLRIPMLLVPLGLDQSRGDQIDNANHFADKGYAKAIDEEQLTAQILLQELNEMEQERTRIINNMKSYEQSYTKEALFDKMIKDALN	not soluble
MTKIMIIGANGGIAKKLTQRLLAETDDELVLFLRRAERLAQYREQPRVTLIDGNVLDTDELATAMAPVDIVYSNVGGTDLAAQTKSILAAMARTQRQRLIFISALGAHHEVPGKFGAWNEQAIADFLPGFREAARLLSASELVYTEIRPAWLTDVAEIDYELTTGAEPFKGTEVSRASVADLVFKLMAHPENYQRVSLGVDEPGTAGDRPSWLLEHHHHHH	not soluble
MTKKKLLKALAVAAIATSLVACSDSSSNDKTLTTAVSSGSSVATTTVAAPADNTNVTANASYIIGYGMGSSIATDKNIKTFNLNNDKVMAGFEDAINAKKPAIPLEDIANNMNTLRDKMQQQMNQKAVTSFLSVQDGIYNSDLTPKSDIKNPDVVVYEFFDYQCMYCSKLAPEIEKIMKDNSDVQVVFAEFPIFGQKLPASEYAAEVSTAIYKLYGADAYVKYHNGIFATGEDEGSLKNATVDNVAKQAGADMTKVNKAIQDDKIADHLKDMLKMGFGQLGIQGTPFLVIAPAKNATVANTTIIGGYTTADGIQAAINKAKSTATTTSTSNNGQTDTKQAQNDIATVTAEAQATSGSTEQLAQPR	not soluble
MTKPIIGITANQRLNMALDNLPWSYAPTGFVQAVTQSGGLPLLLPIGDEAAAKTYVSMVDKIILIGGQNVDPKYYQEEKAAFDDDFSPERDTFELAIIKEAITLKKPILGICRGTQLMNVALGGNLNQHIDSHWQEAPSDFLSHEMIIEPDSILYPIYGHKTLINSFHRQSLKTVAKDLKVIARDPRDGTIEAVISTNDAIPFLGVQWHPELLQGVRDEDLQLFRLFVNDF	not soluble
MTKQLVLFCDFDGTITENDNIIAIMKQFAPPEWEALKDDILAERISVQEGVGKMFSLLPSSLKGEIIDFLRRTTRLRAGFREFVAFTKERGIPLYIVSGGIDFFVYPLLEGLIEPERIFCNGSDFSGETIRITWPHACDGECQNGCGCCKPSLLRKLARPDGYHVVIGDSITDLAVAKQADYVMARDFLLQKCQELGLPHAPFATFFDVIDALQRMEVIV	soluble
MTKQREKLIEVKNVKQHFDVSGGVVKAVNDISFDIYRGETFGLVGESGCGKSTTGRTIIRLYDATAGEVLFDGENVHGKKSRAELKKFNRKMQMIFQDPYASLNPRMTVGDIIAEGIDIHGLAKNKKERMDRVHELLNTVGLNKEHANRFPHEFSGGQRQRIGIARALAVEPEFIIADEPISALDVSIQAQVVNLLKKLQKEKGLTYLFIAHDLSMVKYISDRIGVMYRGQIVELTTSDELYANPIHPYTKSLLSAIPLPDPDYERNRKRIVYDPSQHNYGSEEPTMREIRPGHFVLCSEAEYKKYKEIYQ	not soluble
MTKQVKIYHNPRCSKSRETLNLLKENGVEPEVVLYLETPADAATLRDLLKILGMNSARELMRQKEDLYKELNLADSSLSEEALIQAMVDNPKLMERPIVVANGKARIGRPPEQVLEIVG	not soluble
